Reference: patent US20260146097A1
Changes are numbered by the printed parent chain. Numbers in names are those of the source. Each block holds one molecule with its values, some of them ahead of it.

What was measured:
[1] = target: IL2Rs (IL2Rgamma/IL2Rbeta) on preactivated human PBMCs / CD8+ T cells (human) (UniProt P14784); assay: cell-based or functional assay
[2] = target: T1, human IL2Rbeta-Avi protein (R&D Systems) (human) (UniProt P14784); assay: ELISA: variant captured by anti-human IgG-Fc, human IL2Rbeta-Avi, streptavidin-HRP
T1 sequence (looked up): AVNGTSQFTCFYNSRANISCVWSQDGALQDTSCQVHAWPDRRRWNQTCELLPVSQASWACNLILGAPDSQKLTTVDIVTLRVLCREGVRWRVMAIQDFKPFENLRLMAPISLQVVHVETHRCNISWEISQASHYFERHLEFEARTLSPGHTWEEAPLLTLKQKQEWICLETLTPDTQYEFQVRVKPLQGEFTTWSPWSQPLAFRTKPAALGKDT

B4: Anti-IL2Rbeta VH modification D31S in the multi-specific format (protein, part only; not given: Rest of multi-specific format, not shown: another chain or arm of the molecule; a dimerising Fc or GST; small tags and cut ends)
VH: EVQLVQSGAEVKKPGACVKISCKVSGYTFTSYYMHWVQRAPGKGLEWIGLVDPEDGETIYAEKFQGRVTITADTSTDTAYMELCSLRSEDTAVYYCATDFVKLDFSLSFQHWGQGTLVTVSS
EC50 [2]: 0.21 µg/mL

B6: Anti-IL2Rbeta VH modification D31Y in the multi-specific format (protein, part only; not given: Rest of multi-specific format, not shown: another chain or arm of the molecule; a dimerising Fc or GST; small tags and cut ends)
VH: B4 VH with S31Y
EC50 [2]: 0.24 µg/mL

B7: Anti-IL2Rbeta VH modification D31R in the multi-specific format (protein, part only; not given: Rest of multi-specific format, not shown: another chain or arm of the molecule; a dimerising Fc or GST; small tags and cut ends)
VH: B4 VH with S31R
EC50 [2]: 0.13 µg/mL

B8: Anti-IL2Rbeta VH modification D31K in the multi-specific format (protein, part only; not given: Rest of multi-specific format, not shown: another chain or arm of the molecule; a dimerising Fc or GST; small tags and cut ends)
VH: B4 VH with S31K
EC50 [2]: 0.4 µg/mL

B9: Anti-IL2Rbeta VH modification E53I in the multi-specific format (protein, part only; not given: Rest of multi-specific format, not shown: another chain or arm of the molecule; a dimerising Fc or GST; large carriers; small tags and cut ends)
VH: B4 VH with S31D, E54I
EC50 [2]: 0.3 µg/mL

Results, then the molecule that gave them:

pSTAT5 EMAX (Mean Fluorescence Intensity) (Mean Fluorescence Intensity) [1]: 25000
Molecule: IgG Control (antibody)

EC50 [2]: 0.65 µg/mL
B1: Wild-type anti-IL2Rbeta VH in the multi-specific format (anti-LAG3 and a single anti-IL2Rgamma/anti-IL2Rbeta unit) (protein, part only; not given: rest of multi-specific format, part only)
VH: B4 VH with S31D

EC50 [2]: 0.24 µg/mL
B2: Anti-IL2Rbeta VH modification Y33F in the multi-specific format (protein, part only; not given: Rest of multi-specific format, not shown: another chain or arm of the molecule; a dimerising Fc or GST; large carriers; small tags and cut ends)
VH: B4 VH with S31D, Y33F

EC50 [2]: 0.3 µg/mL
B3: Anti-IL2Rbeta VH modification E53S in the multi-specific format (protein, part only; not given: Rest of multi-specific format, not shown: another chain or arm of the molecule; a dimerising Fc or GST; large carriers; small tags and cut ends)
VH: B4 VH with S31D, E54S

EC50 [2]: 0.24 µg/mL
B5: Anti-IL2Rbeta VH modification Y32F in the multi-specific format (protein, part only; not given: Rest of multi-specific format, not shown: another chain or arm of the molecule; a dimerising Fc or GST; large carriers; small tags and cut ends)
VH: B4 VH with S31D, Y32F
